Results on two molecules are retold here after US20230203197A1 (UNIVERSITE DE TOUR, published 2023).

Assay [1] has as its target T1, neutrophil proteinase 3 (PR3), purified native human PR3 (human, UniProt P24158 28-248).
T1 construct: Also used in denatured form in western blot and as the antigen of the EuroImmun anti-PR3 kit; also called native PR3
T1 sequence: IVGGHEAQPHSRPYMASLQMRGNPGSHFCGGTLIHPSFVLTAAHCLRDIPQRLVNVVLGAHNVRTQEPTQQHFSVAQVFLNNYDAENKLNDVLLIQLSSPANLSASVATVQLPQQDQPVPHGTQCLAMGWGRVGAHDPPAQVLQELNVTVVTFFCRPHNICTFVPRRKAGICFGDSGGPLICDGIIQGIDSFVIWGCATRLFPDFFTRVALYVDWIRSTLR
Description: BIACORE (SPR).

The target of another assay is T2, BSA (bovine, UniProt P02769).
T2 construct: in the ELISA well; also called Bovine Serum Albumin
T2 sequence (P02769 25-607 limits assumed): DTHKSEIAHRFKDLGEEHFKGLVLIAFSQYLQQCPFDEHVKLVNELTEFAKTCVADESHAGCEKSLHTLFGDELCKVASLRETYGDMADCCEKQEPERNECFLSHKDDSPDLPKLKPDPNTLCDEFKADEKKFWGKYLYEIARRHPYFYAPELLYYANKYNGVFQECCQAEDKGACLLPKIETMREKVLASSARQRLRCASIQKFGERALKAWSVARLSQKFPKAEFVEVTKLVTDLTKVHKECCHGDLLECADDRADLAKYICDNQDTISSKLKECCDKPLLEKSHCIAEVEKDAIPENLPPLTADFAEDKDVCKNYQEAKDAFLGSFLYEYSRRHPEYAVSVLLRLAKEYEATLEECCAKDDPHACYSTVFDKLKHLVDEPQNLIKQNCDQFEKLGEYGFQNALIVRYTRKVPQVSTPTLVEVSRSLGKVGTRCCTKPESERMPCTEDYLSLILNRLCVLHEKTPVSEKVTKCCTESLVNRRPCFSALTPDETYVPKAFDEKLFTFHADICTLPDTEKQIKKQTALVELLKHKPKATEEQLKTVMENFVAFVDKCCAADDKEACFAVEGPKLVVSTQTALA
The assay can be described thus: ELISA, compared with coated PR3.

The next assay deals with T3, Cathepsin G (Cath G) (UniProt P08311 21-244).
T3 sequence (looked up): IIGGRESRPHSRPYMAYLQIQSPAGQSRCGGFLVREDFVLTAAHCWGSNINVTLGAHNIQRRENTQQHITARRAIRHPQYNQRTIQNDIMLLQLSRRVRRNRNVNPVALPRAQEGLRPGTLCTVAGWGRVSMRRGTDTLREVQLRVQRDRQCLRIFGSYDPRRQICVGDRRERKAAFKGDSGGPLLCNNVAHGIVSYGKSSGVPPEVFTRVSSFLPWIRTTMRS
The assay can be described thus: western blot, 4C3 as the primary antibody. The source says:
(§1) To confirm anti-PR3 specificity, 4C3 was used as a primary antibody in western blot (FIGS. 8A and 8B) on protein lysates from neutrophils, HeLa cells (ATCC® CCL-2™) and human PR3.

The target in another assay is T4, Elastase (UniProt P08246 30-247, limits assumed).
T4 sequence (looked up): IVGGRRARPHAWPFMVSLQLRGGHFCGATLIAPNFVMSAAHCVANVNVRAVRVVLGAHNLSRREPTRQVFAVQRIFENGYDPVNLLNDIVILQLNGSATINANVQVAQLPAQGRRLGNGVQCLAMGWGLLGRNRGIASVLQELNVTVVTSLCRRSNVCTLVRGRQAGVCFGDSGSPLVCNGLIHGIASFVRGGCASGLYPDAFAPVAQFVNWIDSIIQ
The assay can be described thus: western blot, 4C3 as the primary antibody.
Excerpt: as §1

The target in assay [2] is T5, OVA.
T5 construct: One of the antigens of group m15; also called ovalbumin
T5 chain: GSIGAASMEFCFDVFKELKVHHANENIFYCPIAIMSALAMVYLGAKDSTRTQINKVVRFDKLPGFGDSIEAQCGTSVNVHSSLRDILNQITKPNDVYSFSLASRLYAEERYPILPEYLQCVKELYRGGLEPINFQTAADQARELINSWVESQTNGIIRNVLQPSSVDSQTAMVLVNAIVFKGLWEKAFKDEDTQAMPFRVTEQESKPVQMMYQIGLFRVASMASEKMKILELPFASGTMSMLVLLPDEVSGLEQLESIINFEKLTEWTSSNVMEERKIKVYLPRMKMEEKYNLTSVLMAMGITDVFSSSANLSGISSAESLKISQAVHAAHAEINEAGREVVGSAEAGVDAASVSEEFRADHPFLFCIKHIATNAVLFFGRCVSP
Description: specificity ELISA on different coated antigens (n=5).

In assay [3] the target is T6, peptide 4C3_3.2 of PR3, biotinylated (human, biotinylated (position not given)).
T6 construct: also called peptide 3.2
Description: HTRF: anti-Fab antibody coupled to d2 on 4C3, terbium-streptavidin on the biotinylated peptide; ratio, baseline-corrected. The protocol:
The identification of the epitope recognised by the 4C3 antibody was carried out by MabSilico. The first step enabled the PR3 epitope to be modelled using the MabTope method, which consists of the computer prediction of an ordered list of PR3 peptides likely to belong to the epitope from the sequence of the variable part (VH and VL) of 4C3 (FIGS. 4B and 4C). The second step allowed the experimental measurement of the specific binding of a number of these peptides to the antibody. This measurement was made by HTRF (Homogeneous Time Resolved Fluorescence) between an anti-Fab d2-coupled antibody (CisBio™) which binds to the antibody of interest, and a terbium-coupled streptavidin (CisBio™) which binds to the biotinylated peptide (FIG. 4D).

The target of assay [4] is T1, neutrophil proteinase 3 (PR3), purified …. The assay can be described thus: BIACORE (SPR). This is another data set of the same source.
Assay [5] addresses T5, OVA. Description: ELISA, compared with coated PR3.

Where two headings read alike, the source gives them in different places.

B1: human monoclonal anti-proteinase 3 (PR3) 4C3 antibody, G1m3-1 allotype (antibody, human IgG1, kappa)
heavy: not shown
light: DIQMTQSPPTLSASVGDRVTITCRASQSISDWLAWYQQKPGKPPQLLIYKASSLESGVPSRFSGTGSGAEFTLTISSLQPDDSATYYCQQYNSYSNTFGQGTKLEIKRTVAAPSVFIFPPSDEQLKSGTASVVCLLNNFYPREAKVQWKVDNALQSGNSQESVTEQDSKDSTYSLSSTLTLSKADYEKHKVYACEVTHQGLSSPVTKSFNRGEC
notes: also called MAb 4C3; AcMo 4C3
B1 had a Kd in assay [1] of 0.741 nM. The molecule further gave a koff in assay [1] of 0.00936 s⁻¹. The kon in assay [1] was 1.26e+07 M⁻¹ s⁻¹. Besides, the binding result is on record as “no binding” with BSA; “no binding (tested: 5 µg per lane)” with Cathepsin G (Cath G); “no binding (tested: 5 µg per lane)” with Elastase; “no binding” with OVA [2]; “binds” in assay [3].

B2: recombinant 4C3 antibody (r4C3), G1m17-1 allotype (antibody, human IgG1, kappa)
heavy: not shown
light: DIQMTQSPPTLSASVGDRVTITCRASQSISDWLAWYQQKPGKPPQLLIYKASSLESGVPSRFSGTGSGAEFTLTISSLQPDDSATYYCQQYNSYSNTFGQGTKLEIKRTVAAPSVFIFPPSDEQLKSGTASVVCLLNNFYPREAKVQWKVDNALQSGNSQESVTEQDSKDSTYSLSSTLTLSKADYEKHKVYACEVTHQGLSSPVTKSFNRGEC
notes: Produced in HEK-293 cells; differs from 4C3 only by R>K at position 224 of the heavy chain constant region
For the molecule B2, in assay [4], binding was characterised by a dissociation constant (Kd) of 0.684 nM, the koff amounted to 0.00936 s⁻¹ and the kon is 1.37e+07 M⁻¹ s⁻¹. Moreover, the binding result with OVA [5] was “no binding (tested: 1 µg/ml (coating of Ova))”. For the same molecule, in the assay with BSA, the binding result is given as “no binding”.
